Laboratory results reported in the supplement of paper PMC10065799, “High-throughput profiling of sequence recognition by tyrosine kinases and SH2 domains using bacterial peptide display” (eLife, 2023).

Tests used:
SHP2-C SH2 = experiment: SH2 binding enrichment of the phosphorylated peptide, bacterial display (enrichment ratio); higher = better substrate or ligand; peptides without Tyr show the background
Grb2 SH2 = Grb2 SH2 (UniProt P62993); experiment: as above
c-Src SH2 = experiment: as above
AncSZ = experiment: phosphorylation enrichment, bacterial display (enrichment ratio); higher = better substrate or ligand; peptides without Tyr show the background
c-Src = experiment: as above
FGFR3 = FGFR3 (UniProt P22607); experiment: as above
FGFR3, sequence (P22607 whole entry, looked up): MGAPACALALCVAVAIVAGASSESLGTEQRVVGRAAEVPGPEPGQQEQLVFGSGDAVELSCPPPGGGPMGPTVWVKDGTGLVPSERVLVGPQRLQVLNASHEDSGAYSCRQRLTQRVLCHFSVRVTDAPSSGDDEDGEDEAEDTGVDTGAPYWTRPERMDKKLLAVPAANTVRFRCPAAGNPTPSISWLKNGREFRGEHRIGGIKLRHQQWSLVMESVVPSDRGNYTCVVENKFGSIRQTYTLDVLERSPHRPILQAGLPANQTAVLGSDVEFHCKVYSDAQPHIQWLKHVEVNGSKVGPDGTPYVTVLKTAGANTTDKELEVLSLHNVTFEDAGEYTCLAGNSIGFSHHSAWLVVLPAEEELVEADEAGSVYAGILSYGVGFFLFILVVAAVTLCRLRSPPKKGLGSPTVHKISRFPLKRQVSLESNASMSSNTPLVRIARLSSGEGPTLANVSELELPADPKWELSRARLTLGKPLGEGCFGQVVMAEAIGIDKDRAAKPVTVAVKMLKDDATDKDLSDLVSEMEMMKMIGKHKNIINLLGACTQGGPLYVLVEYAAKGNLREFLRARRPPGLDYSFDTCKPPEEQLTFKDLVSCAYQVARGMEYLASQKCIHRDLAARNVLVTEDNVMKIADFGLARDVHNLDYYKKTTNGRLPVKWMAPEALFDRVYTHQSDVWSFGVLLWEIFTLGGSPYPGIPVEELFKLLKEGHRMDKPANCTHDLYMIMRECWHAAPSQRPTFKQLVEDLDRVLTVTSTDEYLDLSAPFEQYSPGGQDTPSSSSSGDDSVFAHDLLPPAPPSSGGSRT

EPHB1 = EPHB1 (UniProt P54762); experiment: as above
EPHB1, sequence (P54762 whole entry, looked up): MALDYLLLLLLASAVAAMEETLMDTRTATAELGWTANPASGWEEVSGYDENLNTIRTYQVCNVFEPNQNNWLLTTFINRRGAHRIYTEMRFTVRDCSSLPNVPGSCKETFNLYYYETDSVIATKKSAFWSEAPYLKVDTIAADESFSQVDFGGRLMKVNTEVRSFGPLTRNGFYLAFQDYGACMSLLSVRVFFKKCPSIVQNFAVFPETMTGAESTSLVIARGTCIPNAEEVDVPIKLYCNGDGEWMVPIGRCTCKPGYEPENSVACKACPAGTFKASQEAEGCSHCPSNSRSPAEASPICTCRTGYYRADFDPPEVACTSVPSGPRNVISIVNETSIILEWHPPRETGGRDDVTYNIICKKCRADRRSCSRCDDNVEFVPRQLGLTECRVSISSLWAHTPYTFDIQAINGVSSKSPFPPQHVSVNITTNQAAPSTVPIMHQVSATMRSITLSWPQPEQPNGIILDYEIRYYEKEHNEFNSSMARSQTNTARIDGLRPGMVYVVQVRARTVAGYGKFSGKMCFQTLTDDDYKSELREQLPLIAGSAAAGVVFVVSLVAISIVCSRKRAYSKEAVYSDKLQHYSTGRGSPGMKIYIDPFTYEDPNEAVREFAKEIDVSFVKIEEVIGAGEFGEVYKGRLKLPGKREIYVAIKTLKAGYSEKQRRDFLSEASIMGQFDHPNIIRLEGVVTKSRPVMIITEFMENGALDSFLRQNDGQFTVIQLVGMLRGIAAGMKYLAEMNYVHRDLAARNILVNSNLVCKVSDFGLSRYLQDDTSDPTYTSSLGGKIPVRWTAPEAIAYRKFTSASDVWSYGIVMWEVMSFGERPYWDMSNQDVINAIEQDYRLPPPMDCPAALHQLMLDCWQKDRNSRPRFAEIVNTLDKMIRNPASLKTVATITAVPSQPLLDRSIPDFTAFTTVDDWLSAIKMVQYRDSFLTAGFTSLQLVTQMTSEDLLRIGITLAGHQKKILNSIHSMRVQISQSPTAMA

EPHB2 = EPHB2 (UniProt P29323); experiment: as above
EPHB2, sequence (P29323 whole entry, looked up): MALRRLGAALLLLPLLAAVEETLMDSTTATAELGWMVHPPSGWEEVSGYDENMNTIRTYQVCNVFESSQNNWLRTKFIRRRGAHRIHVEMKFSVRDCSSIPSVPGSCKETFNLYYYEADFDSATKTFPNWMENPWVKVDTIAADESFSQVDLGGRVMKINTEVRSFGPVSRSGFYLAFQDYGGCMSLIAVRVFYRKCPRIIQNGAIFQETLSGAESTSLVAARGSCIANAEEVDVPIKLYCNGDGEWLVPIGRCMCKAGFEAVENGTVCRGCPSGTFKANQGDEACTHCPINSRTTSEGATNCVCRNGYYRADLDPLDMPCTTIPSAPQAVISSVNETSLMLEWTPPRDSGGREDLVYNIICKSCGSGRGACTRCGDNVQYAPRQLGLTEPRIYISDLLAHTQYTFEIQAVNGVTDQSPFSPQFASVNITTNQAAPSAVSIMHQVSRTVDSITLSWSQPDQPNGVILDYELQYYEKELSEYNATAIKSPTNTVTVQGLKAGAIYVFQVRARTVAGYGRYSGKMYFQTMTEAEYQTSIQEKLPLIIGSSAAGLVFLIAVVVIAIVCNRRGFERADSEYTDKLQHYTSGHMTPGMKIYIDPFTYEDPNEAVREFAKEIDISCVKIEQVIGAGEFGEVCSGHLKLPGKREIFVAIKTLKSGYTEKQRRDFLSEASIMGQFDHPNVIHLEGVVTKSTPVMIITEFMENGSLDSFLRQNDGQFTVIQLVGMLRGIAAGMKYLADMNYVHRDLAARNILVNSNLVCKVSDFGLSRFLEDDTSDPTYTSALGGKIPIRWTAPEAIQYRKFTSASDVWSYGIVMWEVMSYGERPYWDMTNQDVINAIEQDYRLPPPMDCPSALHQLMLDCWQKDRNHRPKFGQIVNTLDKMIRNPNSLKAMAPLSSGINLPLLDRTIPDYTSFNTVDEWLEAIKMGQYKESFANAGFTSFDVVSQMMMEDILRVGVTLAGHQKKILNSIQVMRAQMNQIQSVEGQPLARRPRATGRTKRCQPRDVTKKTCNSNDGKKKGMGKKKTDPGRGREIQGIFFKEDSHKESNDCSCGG

Hck = Hck (UniProt P08631); experiment: as above
MERTK = MERTK (UniProt Q12866); experiment: as above
Fyn = Fyn (UniProt P06241); experiment: as above
Fyn, sequence (P06241 whole entry, looked up): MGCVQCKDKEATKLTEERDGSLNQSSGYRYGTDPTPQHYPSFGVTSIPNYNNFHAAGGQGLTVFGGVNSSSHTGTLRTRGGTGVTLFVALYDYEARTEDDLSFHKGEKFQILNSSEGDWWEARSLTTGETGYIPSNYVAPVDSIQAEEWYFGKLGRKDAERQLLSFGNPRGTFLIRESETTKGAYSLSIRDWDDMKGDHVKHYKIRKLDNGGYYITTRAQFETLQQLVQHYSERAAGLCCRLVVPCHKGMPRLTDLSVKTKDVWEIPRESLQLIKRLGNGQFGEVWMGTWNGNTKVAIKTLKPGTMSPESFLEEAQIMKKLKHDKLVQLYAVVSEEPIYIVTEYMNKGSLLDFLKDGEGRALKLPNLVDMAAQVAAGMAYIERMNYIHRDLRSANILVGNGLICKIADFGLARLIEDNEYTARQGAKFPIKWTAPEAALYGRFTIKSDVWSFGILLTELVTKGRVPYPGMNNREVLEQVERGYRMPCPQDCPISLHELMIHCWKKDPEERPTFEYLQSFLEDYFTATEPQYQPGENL

Jak2 = Jak2 (UniProt O60674); experiment: as above
Fes = Fes (UniProt P07332); experiment: as above
Fes, sequence (P07332 whole entry, looked up): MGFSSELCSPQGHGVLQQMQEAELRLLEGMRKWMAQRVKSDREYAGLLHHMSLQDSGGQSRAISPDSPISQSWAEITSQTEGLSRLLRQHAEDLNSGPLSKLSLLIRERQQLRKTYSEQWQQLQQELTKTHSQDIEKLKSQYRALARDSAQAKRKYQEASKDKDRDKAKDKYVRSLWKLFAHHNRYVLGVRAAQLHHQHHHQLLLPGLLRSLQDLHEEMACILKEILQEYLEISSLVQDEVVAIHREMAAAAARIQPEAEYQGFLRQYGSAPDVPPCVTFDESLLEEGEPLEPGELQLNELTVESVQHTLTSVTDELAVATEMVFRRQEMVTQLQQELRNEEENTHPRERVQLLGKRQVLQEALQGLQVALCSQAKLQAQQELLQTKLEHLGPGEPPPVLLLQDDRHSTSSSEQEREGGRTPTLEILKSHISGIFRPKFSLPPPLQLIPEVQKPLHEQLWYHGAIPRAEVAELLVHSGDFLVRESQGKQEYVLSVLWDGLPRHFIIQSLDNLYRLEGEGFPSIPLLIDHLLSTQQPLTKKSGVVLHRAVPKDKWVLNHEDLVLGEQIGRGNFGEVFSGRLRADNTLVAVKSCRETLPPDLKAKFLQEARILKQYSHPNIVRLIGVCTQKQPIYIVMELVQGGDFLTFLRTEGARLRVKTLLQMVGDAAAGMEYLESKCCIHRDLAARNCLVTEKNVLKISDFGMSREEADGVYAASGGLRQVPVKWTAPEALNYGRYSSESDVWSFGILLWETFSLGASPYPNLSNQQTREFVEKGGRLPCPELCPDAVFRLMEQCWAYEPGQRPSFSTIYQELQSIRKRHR

FGFR1 = FGFR1 (UniProt P11362); experiment: as above
FGFR1, sequence (P11362 whole entry, looked up): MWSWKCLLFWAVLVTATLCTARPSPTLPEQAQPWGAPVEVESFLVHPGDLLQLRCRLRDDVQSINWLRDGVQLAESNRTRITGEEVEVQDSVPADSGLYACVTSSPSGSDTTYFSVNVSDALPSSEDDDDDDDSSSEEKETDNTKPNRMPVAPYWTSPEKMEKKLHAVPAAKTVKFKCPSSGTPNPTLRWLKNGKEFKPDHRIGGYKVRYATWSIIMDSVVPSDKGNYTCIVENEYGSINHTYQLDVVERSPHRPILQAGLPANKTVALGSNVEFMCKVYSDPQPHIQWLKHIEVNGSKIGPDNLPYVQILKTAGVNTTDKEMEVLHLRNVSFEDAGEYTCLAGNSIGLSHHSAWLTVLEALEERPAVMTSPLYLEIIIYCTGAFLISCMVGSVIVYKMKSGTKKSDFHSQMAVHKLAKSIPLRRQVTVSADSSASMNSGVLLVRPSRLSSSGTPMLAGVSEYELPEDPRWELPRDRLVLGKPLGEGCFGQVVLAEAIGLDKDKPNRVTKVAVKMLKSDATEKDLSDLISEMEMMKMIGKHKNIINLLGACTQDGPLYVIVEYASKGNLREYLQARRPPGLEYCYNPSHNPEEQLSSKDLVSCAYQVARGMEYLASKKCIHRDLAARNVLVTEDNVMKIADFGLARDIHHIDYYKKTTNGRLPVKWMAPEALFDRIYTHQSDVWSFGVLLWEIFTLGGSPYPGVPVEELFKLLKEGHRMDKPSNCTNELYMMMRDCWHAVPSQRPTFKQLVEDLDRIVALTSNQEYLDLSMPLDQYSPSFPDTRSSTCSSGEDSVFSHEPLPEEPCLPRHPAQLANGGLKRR

Fer (mouse) = experiment: as above
c-Abl (mouse) = experiment: as above
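Wherever SH2 binding enrichment of the phosphorylated peptide, bacterial display is given: peptide library displayed on the E. coli surface as eCPX fusions, selected cells deep-sequenced, score is each peptide's frequency after selection divided by its frequency in the input.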
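Wherever phosphorylation enrichment, bacterial display is given: 11-residue human phosphosite peptides and single-mutation variants displayed on the E. coli surface, counted by deep sequencing, each peptide's frequency after selection divided by its frequency in the unselected input library; frequency after pTyr selection over input frequency; kinase dosed for 20-30% of maximal phosphorylation in three min.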

Row | Sequence | SH2 binding enrichment (SHP2-C SH2) | SH2 binding enrichment (Grb2 SH2) | SH2 binding enrichment (c-Src SH2) | phosphorylation enrichment (AncSZ) | phosphorylation enrichment (c-Src) | phosphorylation enrichment (FGFR3) | phosphorylation enrichment (EPHB1) | phosphorylation enrichment (EPHB2) | phosphorylation enrichment (Hck) | phosphorylation enrichment (MERTK) | phosphorylation enrichment (Fyn) | phosphorylation enrichment (Jak2) | phosphorylation enrichment (Fes) | phosphorylation enrichment (FGFR1) | phosphorylation enrichment (Fer (mouse)) | phosphorylation enrichment (c-Abl (mouse))
1 | ERMKVYVPTGF [EPHX1_Y393] | 0.768 | 0.761 | 0.56 | 0.658 | 0.563 | 0.539 | 0.407 | 0.522 | 0.472 | 0.453 | 0.515 | 0.557 | 0.818 | 0.513 | 0.562 | 0.672
2 | ESDYPYSSSYE [SRPK2_Y427_T426P] | 0.395 | 0.832 | 0.829 | 1.19 | 0.784 | 0.789 | 0.589 | 0.649 | 0.581 | 0.513 | 0.593 | 0.71 | 1.18 | 0.668 | 0.499 | 0.481
3 | ESKAGYRAPRS [CLDN7_Y195_V197A] | 0.74 | 1.04 | 0.542 | 0.536 | 0.349 | 0.483 | 0.35 | 0.415 | 0.404 | 0.34 | 0.415 | 0.593 | 0.519 | 0.425 | 0.339 | 0.402
4 | ETAVHYIHDGI [GATD3A_Y250_L248V] | 0.465 | 0.678 | 0.504 | 0.631 | 0.461 | 0.543 | 0.419 | 0.43 | 0.399 | 0.453 | 0.389 | 0.649 | 0.726 | 0.445 | 0.426 | 0.606
5 | EVASVYQSFQP [MAVS_Y92_YF] | 0.661 | 0.961 | 0.507 | 1.22 | 8.85 | 0.991 | 0.785 | 0.846 | 11 | 2.03 | 13.6 | 1.06 | 1.2 | 0.604 | 5.55 | 2.19
6 | EVNQDYGLDPK [FH_Y110] | 0.581 | 0.807 | 0.508 | 1.31 | 0.466 | 0.837 | 0.631 | 0.546 | 0.596 | 0.443 | 0.604 | 1.17 | 1.29 | 0.572 | 0.519 | 0.765
7 | EVQKNYEHLFK [PAM16_Y77] | 0.77 | 0.897 | 0.634 | 0.706 | 0.359 | 0.517 | 0.57 | 0.479 | 0.438 | 0.318 | 0.398 | 0.8 | 0.715 | 0.4 | 0.436 | 0.632
8 | FAANFYKLLGN [ROR2_Y646_D644N_YF] | 0.453 | 0.676 | 0.468 | 0.898 | 0.46 | 0.512 | 0.476 | 0.462 | 0.464 | 0.419 | 0.365 | 0.924 | 0.986 | 0.425 | 0.347 | 0.726
9 | FADIAYNYRRG [PAH_Y166_H170R] | 0.583 | 0.699 | 0.427 | 0.638 | 0.511 | 0.449 | 0.493 | 0.458 | 0.452 | 0.429 | 0.466 | 0.529 | 0.702 | 0.39 | 0.329 | 0.502
10 | FASAEYQEALS [GALNS_Y461] | 0.598 | 0.734 | 0.569 | 0.949 | 0.485 | 0.618 | 0.454 | 0.466 | 0.481 | 0.348 | 0.454 | 0.759 | 0.858 | 0.482 | 0.369 | 0.505
11 | FFHKFYNKSED [RYR1_Y4864_R4861H] | 0.746 | 0.741 | 0.521 | 1 | 0.588 | 0.948 | 0.727 | 0.719 | 0.616 | 0.761 | 0.558 | 1.09 | 1.43 | 0.665 | 0.497 | 0.72
12 | FFTEEYVRDHP [DOCK2_Y1555] | 0.916 | 0.944 | 0.553 | 0.989 | 0.457 | 0.766 | 0.486 | 0.461 | 0.485 | 0.381 | 0.44 | 1.19 | 0.915 | 0.481 | 0.452 | 0.657
13 | FGDTSYIPFRD [CDC14C_Y132_P131S] | 0.599 | 0.8 | 0.536 | 0.659 | 0.518 | 0.496 | 0.424 | 0.533 | 0.443 | 0.452 | 0.443 | 0.676 | 0.672 | 0.517 | 0.391 | 0.546
14 | FGMSSYITRED [FNDC3B_Y180_T179S_YF] | 0.937 | 0.715 | 0.501 | 0.84 | 0.442 | 0.693 | 0.594 | 0.653 | 0.536 | 0.527 | 0.59 | 0.559 | 0.891 | 0.556 | 0.544 | 0.579
15 | FGSRLYKYAFK [FANCD2_Y458_L456R] | 0.628 | 1.09 | 0.77 | 0.593 | 0.318 | 0.407 | 0.363 | 0.429 | 0.399 | 0.342 | 0.341 | 0.488 | 0.715 | 0.344 | 0.473 | 0.5
16 | FGSVDYWEKFF [EEF1AKNMT_Y16] | 0.759 | 0.749 | 0.493 | 1.16 | 0.523 | 1.05 | 0.633 | 0.587 | 0.55 | 0.457 | 0.499 | 1.1 | 1.23 | 0.909 | 0.506 | 0.841
17 | FGVVGYLAIVF [RNF175_Y155_M159V] | 1.12 | 1.06 | 0.662 | 1.4 | 0.457 | 1.14 | 0.811 | 0.691 | 0.557 | 0.498 | 0.452 | 1.65 | 1.94 | 0.559 | 0.649 | 1.1
18 | FKDFFYCWNTS [AICDA_Y146_F151S_YF] | 0.689 | 0.815 | 0.59 | 1.32 | 0.589 | 0.939 | 0.942 | 0.61 | 0.589 | 0.836 | 0.458 | 1.42 | 1.5 | 0.496 | 0.768 | 1.08

Second part, led by results:

Row | SH2 binding enrichment (SHP2-C SH2) | SH2 binding enrichment (Grb2 SH2) | SH2 binding enrichment (c-Src SH2) | Sequence | phosphorylation enrichment (AncSZ) | phosphorylation enrichment (c-Src) | phosphorylation enrichment (FGFR3) | phosphorylation enrichment (EPHB1) | phosphorylation enrichment (EPHB2) | phosphorylation enrichment (Hck) | phosphorylation enrichment (MERTK) | phosphorylation enrichment (Fyn) | phosphorylation enrichment (Jak2) | phosphorylation enrichment (Fes) | phosphorylation enrichment (FGFR1) | phosphorylation enrichment (Fer (mouse)) | phosphorylation enrichment (c-Abl (mouse))
19 | 0.741 | 0.952 | 0.485 | ERNTVYSSSGV [NELL2_Y350] | 0.539 | 0.666 | 0.679 | 0.502 | 0.379 | 0.768 | 0.39 | 0.544 | 0.405 | 0.474 | 0.372 | 0.359 | 0.521
20 | 0.656 | 0.857 | 0.541 | ESDGAYIHRMQ [CCDC137_Y125] | 0.726 | 0.403 | 0.514 | 0.408 | 0.493 | 0.378 | 0.406 | 0.365 | 0.824 | 0.873 | 0.419 | 0.414 | 0.703
21 | 0.627 | 0.667 | 0.426 | ETMNKYHLSGR [MYEF2_Y164_D165H] | 0.539 | 0.375 | 0.367 | 0.332 | 0.355 | 0.467 | 0.385 | 0.343 | 0.422 | 0.53 | 0.432 | 0.357 | 0.398
22 | 0.501 | 0.759 | 0.404 | EVNETYVPKEF [ALB_Y521_D518N] | 1.19 | 0.523 | 0.796 | 0.584 | 0.543 | 0.534 | 0.477 | 0.564 | 1.19 | 1.26 | 0.524 | 0.518 | 0.851
23 | 1.46 | 1.05 | 0.57 | EYITRYIASLK [PSMA7_Y110] | 0.708 | 0.477 | 0.415 | 0.498 | 0.416 | 0.51 | 0.499 | 0.416 | 0.526 | 0.717 | 0.456 | 0.414 | 0.569
24 | 1.87 | 9.58 | 3.74 | EYQLPYYNMVP [BMPR1A_Y457] | 6.15 | 5.13 | 11.9 | 2.81 | 3.64 | 3.23 | 7.06 | 3.83 | 9.58 | 1.12 | 14.1 | 5.56 | 3
25 | 1.05 | 1.1 | 0.713 | FAELVYTVFWH [ASS1_Y322_G324V] | 2.15 | 7.17 | 3.34 | 2.33 | 2.94 | 5.47 | 8.06 | 7.64 | 2.27 | 1.63 | 4.39 | 6.19 | 12.5
26 | 0.707 | 0.709 | 0.469 | FARNCYVAGQY [G6PD_Y107_S106C] | 1.08 | 0.469 | 0.641 | 0.55 | 0.526 | 0.524 | 0.49 | 0.437 | 0.889 | 1.07 | 0.443 | 0.511 | 0.83
27 | 0.635 | 0.858 | 0.547 | FDDIANIRKTL [PIK3CA_Y1021_Y1021N] | 0.873 | 0.416 | 0.513 | 0.525 | 0.452 | 0.275 | 0.386 | 0.465 | 0.496 | 0.746 | 0.652 | 0.459 | 0.813
28 | 0.607 | 0.787 | 0.39 | FDDIAYIRKAL [PIK3CA_Y1021_T1025A] | 0.708 | 0.436 | 0.461 | 0.361 | 0.448 | 0.495 | 0.454 | 0.427 | 0.52 | 0.685 | 0.358 | 0.387 | 0.5
29 | 0.565 | 0.683 | 0.483 | FDDIAYIRKTL [PIK3CA_Y1021] | 0.75 | 0.449 | 0.496 | 0.469 | 0.481 | 0.469 | 0.474 | 0.514 | 0.835 | 0.878 | 0.456 | 0.411 | 0.62
30 | 0.883 | 0.814 | 0.6 | FFPANYVAPMT [GRAP2_Y324_L319F] | 0.924 | 0.449 | 0.646 | 4.84 | 2.17 | 0.469 | 0.768 | 0.471 | 0.865 | 0.826 | 0.65 | 0.41 | 1.36
31 | 1.26 | 1.46 | 1.31 | FGAHKYHPLPV [OAT_Y55_N54K_YF] | 0.497 | 0.377 | 0.544 | 0.375 | 0.468 | 0.474 | 0.376 | 0.309 | 0.424 | 0.677 | 0.397 | 0.441 | 0.443
32 | 0.408 | 0.975 | 0.683 | FGSGNYNDFGN [HNRNPA2B1_Y300_YF] | 0.941 | 0.419 | 0.505 | 1.97 | 0.544 | 0.4 | 0.363 | 0.347 | 0.726 | 0.995 | 0.378 | 0.362 | 0.876
33 | 0.548 | 1.01 | 0.353 | FGSSSYRGAGG [RPA2_Y14_G15R_YF] | 0.64 | 0.659 | 0.584 | 0.431 | 0.551 | 0.523 | 0.568 | 0.494 | 0.692 | 0.876 | 0.551 | 0.409 | 0.998
